Experimental data: article PMC9916804

Legend:
[1] = biological target: gametogenesis essential protein 1 (GEP1), truncation GEP1^192-905, Strep-tagged; test: pull-down (Strep-Tactin beads), GFP intensity of elution; parameters: reference not given here; details: co-expression of GEP1-192-905 and GCα-2301-3850; parent: est. 100; read off a plot
[2] = biological target: gametogenesis essential protein 1 (GEP1), truncation GEP1^192-905, Strep-tagged (Plasmodium yoelii); test: pull-down; mutants of mEGFP-GCα^2301-3850 with Strep-tagged GEP1^192-905 on Strep-Tactin beads; GFP intensity of the eluates against WT; whether co-expressed or mixed is not stated

Substance	percent of parent [1] [%]	GFP intensity of the pull-down eluate, percent of WT [2]
guanylate cyclase α C-terminal half, GCα^2301-3850, with N-terminal mEGFP N3724W	110	
guanylate cyclase α C-terminal half, GCα^2301-3850, with N-terminal mEGFP E2794A	80	
guanylate cyclase α C-terminal half, GCα^2301-3850, with N-terminal mEGFP D3642V	100	
guanylate cyclase α C-terminal half, GCα^2301-3850, with N-terminal mEGFP D3598A	110	
GCα^2301-3850 (GCα-C) Q2755A, mEGFP-tagged (domain or fragment)		49.2 % of WT
guanylate cyclase α C-terminal half, GCα^2301-3850, with N-terminal mEGFP S2910W	74	
